{"source": "patent EP4786489A1", "about": "“IL-22 MUTANT, PREPARATION METHOD THEREFOR, AND USE THEREOF” (Nanjing Novoacine Biotechnology Co., Ltd., priority 2023, dated 2025)", "molecules": {"B1": {"name": "60K-PEG-IL22-P120C: IL-22 cysteine mutant, conjugation site 87, PEG-maleimide 60kD (conjugate)", "chain": "APISSHCRLDKSNFQQPYITNRTFMLAKEASLADNNTDVRLIGEKLFHGVSMSERCYLMKQVLNFTLEEVLFPQSDRFQPYMQEVVCFLARLSNRLSTCHIEGDDLHIQRNVQKLKDTVKKLGESGEIKAIGELDLLFMSLRNACI"}}, "key": {"STAT3": {"test_system": "STAT3", "assay": "STAT3 phosphorylation in HaCaT cells by FACS (tissue activation preference)", "type": "cell-based, Human", "conditions": "STAT3 activation in HT29 vs HaCaT cells", "experimental": "Human immortalized keratinocyte HaCaT cells were recovered and cultured in MEM/EBSS medium (Cytiva, SH30024.01) supplemented with 15% FBS and 1% P/S (Cytiva, SV30010). When cell confluence reached 70%-80%, cells were digested with 0.25% Trypsin-EDTA (Gibco, 25200-056), terminated with complete medium, and resuspended to […]. After mixed thoroughly, a total of 120 µL per well cells was seeded into a 96-well plate (Corning, 3599) at a density of 1.5 × 10^5 cells per well and incubated overnight at 37°C with 5% CO2.\nwt IL-22 was prepared at an initial working concentration of 1000 nM, and the remaining samples were prepared at 10000 nM as the starting concentration. […] After staining at room temperature in the dark for 1 hour, cells were washed twice with 1× PBS and analyzed by flow cytometry to determine the mean fluorescence intensity (MFI).\nTissue activation preference of different test candidates was evaluated by comparing their ability to activate STAT3 in intestinal-derived HT29 cells and skin-derived HaCaT cells. […] The activity of PEGylated IL-22 mutants in activating STAT3 phosphorylation in HaCaT cells at different concentrations as determined by FACS is shown in Figure 8. […] Tissue preference of PEG-IL22 mutants for STAT3 phosphorylation in human intestinal and human skin cell lines determined by FACS"}, "[1]": {"test_system": "DSS-induced mouse acute colitis model", "assay": "Mouse DSS-induced colitis efficacy model", "type": "in vivo, Balb/C mice", "from_the_text": "Balb/C mice were used to evaluate efficacy in a DSS-induced mouse acute colitis model. DSS refers to Dextran Sulfate Sodium Salt (MW: 36,000-50,000). When added to drinking water at an appropriate concentration, DSS disrupts intestinal epithelial cells and induces acute inflammatory bowel disease (IBD) in mice. Therefore, a 4% DSS-induced mouse IBD model was used to evaluate the potential therapeutic efficacy of the test candidates.\nMale Balb/C mice were allowed free access to drinking water containing 4% DSS until the average body weight of the model group decreased by approximately 15%. Fresh drinking water was then provided, followed by a 2-day recovery period. Body weight and the severity of loose stool/hematochezia for each mouse were monitored throughout the study (Figure 13), and a composite Disease Activity Index (DAI) was evaluated (Figure 14). At the endpoint, the colon of each mouse was collected and its length measured (Figure 15). The colons were photographed, rolled into a Swiss-roll configuration, fixed in 4% paraformaldehyde, dehydrated, embedded in paraffin, sectioned, and subjected to H&E staining (Figures 17-18). Histological scoring was performed on tissue morphology(Figure 16).\nThe dosing regimen of the test candidates was as follows (the day of DSS modeling was defined as D1, the previous day as D-1, and so on). Table 15. Dosing information for the mouse DSS-induced colitis model study\nParaffin sections of colon tissues were subjected to H&E staining and histopathological analysis. According to the actual severity of the lesions, the following scoring criteria were used: minimal (1 point), mild (2 points), moderate (3 points), and severe (4 points). Lesion area (%) scoring criteria were defined as: ≥50% (4 points), 25%-50% (3 points), 10%-25% (2 points), and ≤10% (1 point). Inflammation depth scoring criteria were defined as: epithelium (1 point), lamina propria (2 points), and muscularis mucosae (3 points). No lesion was recorded as \"-\". The score was calculated by summing the scores from the above three dimensions."}, "Reg3β": {"test_system": "Reg3β", "assay": "Mouse PD: plasma Reg3β after single administration (ELISA)", "type": "in vivo", "parameters": "Reg3βCmax: unit not given here", "conditions": "for Reg3βCmax: mouse plasma, wt IL-22 i.p.", "experimental": "The ELISA method was used to determine the baseline levels and post-dose changes of the biomarker Reg3β in plasma samples before and after administration of different test candidates.\nFor the preferable test candidates, one mouse per dose group was subcutaneously injected at 0.5, 1, or 3 mg/kg. The control molecules were IL-22-Fc, administered subcutaneously at 0.3 and 1 mg/kg, and wt IL-22, administered intraperitoneally at the corresponding doses.\nApproximately 40 µL of orbital blood was collected with anticoagulation on the day before dosing and at 4, 24, 48, 96, 144, 192, 264, 336, and 408 hours after dosing, followed by plasma separation. ELISA plates were coated overnight at 4°C with 1 µg/mL anti-Reg3β (Sino Biological, 51153-R065) dissolved in PBS. Mouse Reg3β (Sino Biological, 51153-M08H) was serially diluted to generate a positive control standard curve. Plasma samples were appropriately diluted to fall within the linear range of the standard curve. After blocking, samples were added and incubated for 2 hours. Incubation was then performed with the secondary antibody sheep anti-mouse Reg3β (R&D Systems, AF5110-SP) and HRP-conjugated antibody (HRP-Rabbit anti-sheep IgG H&L, Abcam, Ab97130). After final washing, tetramethylbenzidine peroxidase substrate (TMB, Surmodics, TMBS-1000-01) was added for color development for 10 minutes. The reaction was terminated with 2 M sulfuric acid, and absorbance was read at 450 nm with 630 nm as reference using a microplate reader. The original concentrations of Reg3β in each sample were calculated. Concentration versus time curves were plotted (Figure 9)."}}, "data": [{"molecule": "B1", "values": [{"measurement": "tissue preference compared with IL-22-Fc", "setting": "STAT3", "value": "superior tissue preference"}, {"measurement": "efficacy compared with 0.03 mg/kg IL-22-Fc (Group G6)", "setting": "[1]; 0.1 mg/kg (Group G4), body weight, DAI, colon length, histological scoring", "value": "superior efficacy"}, {"measurement": "colon tissue morphology (H&E histology)", "setting": "[1]; 0.1 mg/kg s.c., days 4 and 6 (G4)", "value": "relatively intact"}, {"measurement": "efficacy dose difference relative to IL-22-Fc", "setting": "[1]; 0.1 mg/kg vs 0.03 mg/kg", "value": 3, "unit": "fold"}, {"measurement": "efficacy in the mouse DSS-induced acute colitis model", "setting": "[1]; body weight, DAI, colon length, histological scoring", "value": "clear efficacy"}, {"measurement": "Normalized Cmax ratio of Reg3β (relative to IL-22-Fc)", "setting": "Reg3β; 0.5mg/kg single dose vs IL-22-Fc 0.3 mg/kg", "value": 265, "unit": "%"}, {"measurement": "Reg3βCmax", "setting": "Reg3β; 0.5mg/kg single dose, test candidates s.c., one mouse per dose group", "value": 41.8}, {"measurement": "Normalized Cmax ratio of Reg3β (relative to IL-22-Fc)", "setting": "Reg3β; 1mg/kg single dose", "value": 133, "unit": "%"}, {"measurement": "Reg3βCmax", "setting": "Reg3β; 1mg/kg single dose, s.c.", "value": 43.9}, {"measurement": "Reg3βCmax", "setting": "Reg3β; 3mg/kg single dose, s.c.", "value": 43.3}, {"measurement": "peak concentrations of Reg3β stimulation compared with IL-22-Fc", "setting": "Reg3β; similar (0.5 mg/kg vs. 0.3 mg/kg) or identical (1 mg/kg) doses", "value": "higher peak concentrations"}]}]}
